# In FireProtDB (doi:10.1016/j.ijbiomac.2020.03.166):
# Several values for one entry are separate records, joined by “and”; a condition that tells them apart may be missing. Identical values can stand only once.
# B1: Peptidyl-prolyl cis-trans isomerase wild type, Q4QII4 (protein)
# chain: MPTSSWRAEHLLIKHSGSRNPVSRRTGQPTTISYEEAVTELQKWCQSINDGKVTFEEAARQRSDCSSYARGGDLGVFGPGEMMKPFEDATKSLEVGQVSGIVVTDSGVHIIKRIA
# Settings: Leishmania major, pH 7.5, potassium phosphate, NaCl, transition: 2, whole UniProt chain shown
# [1] = GdnHCl, fluorescence emission maxima
# [2] = Urea, fluorescence emission maxima
protein,measurement,setting,value
B1,denaturant m value,"GdnHCl, CD",3.32 kcal/mol/M
same,denaturant midpoint (higher = more stable),"GdnHCl, CD",0.98 M
same,unfolding free energy,"GdnHCl, CD",3.27 kcal/mol
same,denaturant m value,"GdnHCl, anisotropy",3.87 kcal/mol/M
same,denaturant midpoint (higher = more stable),"GdnHCl, anisotropy",1.16 M
same,unfolding free energy,"GdnHCl, anisotropy",4.51 kcal/mol
same,denaturant m value,[1],4.3 kcal/mol/M
same,denaturant midpoint (higher = more stable),[1],1.1 M
same,unfolding free energy,[1],4.74 kcal/mol
same,denaturant m value,"GdnHCl, fluorescence intensity",4.61 kcal/mol/M
same,denaturant midpoint (higher = more stable),"GdnHCl, fluorescence intensity",0.97 M
same,unfolding free energy,"GdnHCl, fluorescence intensity",4.48 kcal/mol
same,unfolding enthalpy (calorimetric),"Thermal, DSC",36.6 kcal/mol and 55.1 kcal/mol
same,denaturant m value,"Urea, CD",1.38 kcal/mol/M
same,denaturant midpoint (higher = more stable),"Urea, CD",4.12 M
same,unfolding free energy,"Urea, CD",5.69 kcal/mol
same,denaturant m value,"Urea, anisotropy",1.2 kcal/mol/M
same,denaturant midpoint (higher = more stable),"Urea, anisotropy",4.15 M
same,unfolding free energy,"Urea, anisotropy",4.99 kcal/mol
same,denaturant m value,[2],1.28 kcal/mol/M
same,denaturant midpoint (higher = more stable),[2],4.78 M
same,unfolding free energy,[2],5.12 kcal/mol
same,denaturant m value,"Urea, fluorescence intensity",1.39 kcal/mol/M
same,denaturant midpoint (higher = more stable),"Urea, fluorescence intensity",3.53 M
same,unfolding free energy,"Urea, fluorescence intensity",4.91 kcal/mol
